Measured values published in article PMC5397184 (Nucleic Acids Research, 2017).
Residue numbers refer to the chain shown, from its start. Names may count otherwise.

B1: E. coli Hda (full-length, wild type) (natural protein)
chain: MNTPAQLSLPLYLPDDETFASFWPGDNSSLLAALQNVLRQEHSGYIYLWAREGAGRSHLLHAACAELSQRGDAVGYVPLDKRTWFVPEVLDGMEHLSLVCIDNIECIAGDELWEMAIFDLYNRILESGKTRLLITGDRPPRQLNLGLPDLASRLDWGQIYKLQPLSDEDKLQALQLRARLRGFELPEDVGRFLLKRLDREMRTLFMTLDQLDRASITAQRKLTIPFVKEILKL
B2: E. coli Hda W156A (natural protein)
chain: B1 chain with W156A
B3: E. coli Hda hook mutant (K81S, W84S, F85S) (natural protein)
chain: B1 chain with K81S, W84S, F85S

Legend:
[1] = target: T1, E. coli β sliding clamp (wild type, His-tagged) (E. coli, UniProt P0A988 1-366); experiment: crystal structure
T1 sequence (P0A988 whole entry): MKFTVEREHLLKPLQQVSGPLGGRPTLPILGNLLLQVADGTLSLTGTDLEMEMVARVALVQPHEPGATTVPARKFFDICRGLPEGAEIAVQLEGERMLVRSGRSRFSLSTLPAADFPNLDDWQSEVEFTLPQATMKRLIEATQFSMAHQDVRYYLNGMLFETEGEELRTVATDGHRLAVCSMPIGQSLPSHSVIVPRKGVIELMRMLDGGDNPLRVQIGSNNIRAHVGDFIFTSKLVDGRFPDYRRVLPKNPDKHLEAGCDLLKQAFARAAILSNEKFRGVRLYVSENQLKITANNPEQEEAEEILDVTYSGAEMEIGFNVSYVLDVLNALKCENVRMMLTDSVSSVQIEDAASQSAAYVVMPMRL

[2] = target: the molecule itself; experiment: crystal structure
[3] = target: T1, E. coli β sliding clamp (wild type, …); experiment: SEC-MALS

| Binder | binding result [1] | binding result [2] | binding result [3] |
| --- | --- | --- | --- |
| B1 | binds | binds |  |
| B2 |  |  | binds |
| B3 |  |  | binds |
